Data reported in the RNAGym collection of RNA variant scans (doi:10.7554/elife.90254).

B1: LINE1-full (parent)
chain: UACGUAGGUGGUUUUCCCCUGAUAGUGCUAAGGGGGCCUGGAAGUUUGGACUGGGCAGAGCUCAACACAGCGUGGCAAAGUGGCUGUGGCUAGACUGCCUCUCUGGAUUCCUCGUCACUCAGCAGGGCAUCUCUGAGAGAAAUGCC

Variants of: B1
Assay: self-cleavage, relative activity (ratio to wild type); higher = more cleavage; in vitro, sequencing; the parent is a self-cleaving ribozyme
In the case of U20C A117G, the self-cleavage is reported as 1.59. For U112A G144A, the self-cleavage was 1.32. With A59U U62G the self-cleavage was 0.04. With C37U U112A the self-cleavage was 1.07. G33C U62C showed a self-cleavage of 0.1. For A30U U115C, the self-cleavage was 1.16. Variant A67G U109A has a self-cleavage of 0.43. For G97A G126U, the self-cleavage was 0.07. With C28A A92G the self-cleavage was 0.12. In the case of U47A U91C, the self-cleavage is reported as 0.63. In the case of A22G A141G, the self-cleavage is reported as 1.27. In the case of C19G U52A, the self-cleavage is reported as 1.16. Variant U23A U73A has a self-cleavage of 1.16. Work on U1C G125A yielded a self-cleavage of 1.34. In the case of A6G U115A, the self-cleavage is reported as 0.64. With A6U U46C the self-cleavage was 0.14. For A30G U73C, the self-cleavage was 2.09. Work on G7C A142C yielded a self-cleavage of 1.1. A2G A22U showed a self-cleavage of 0.19. With U20A A42U the self-cleavage was 0.9. U29C C128U showed a self-cleavage of 1.3. G36A A136G gave a self-cleavage of 1.43. In the case of U45A A121C, the self-cleavage is reported as 1.62. Work on U47A G106C yielded a self-cleavage of 2.21. For U96G U109C, the self-cleavage was 0.17. Work on A2U A77G yielded a self-cleavage of 1.77. Work on C113U A136G yielded a self-cleavage of 1.58. C118U U134A showed a self-cleavage of 1.11. C99A G114A showed a self-cleavage of 0.44. Variant A57C U96C has a self-cleavage of 0.08. U14C U143C gave a self-cleavage of 1.02. A69U A92G gave a self-cleavage of 0.03. With A31G G105U the self-cleavage was 1.27. Variant G10A U115C has a self-cleavage of 1.51. With U91C U132C the self-cleavage was 0.83. Work on U45C U134A yielded a self-cleavage of 1.6. A121U U132C showed a self-cleavage of 1.36. With A117C U119A the self-cleavage was 1.77. With C38A U104C the self-cleavage was 0.82. In the case of U52C A142G, the self-cleavage is reported as 1.02. U73A U108G showed a self-cleavage of 0.44. For A57G C116U, the self-cleavage was 0.71. For A24G U134A, the self-cleavage was 0.99. U26G U73A gave a self-cleavage of 1.61. Variant G60A A78G has a self-cleavage of 0.04. Work on A43G U115G yielded a self-cleavage of 1.02. For A43G U115A, the self-cleavage was 0.95. Work on U73A A107G yielded a self-cleavage of 2.03. U20A U91C gave a self-cleavage of 0.65. Work on U47C G54A yielded a self-cleavage of 0.59. In the case of A24U A43G, the self-cleavage is reported as 1.33. For U23C C131U, the self-cleavage was 1.84. In the case of U5C A124G, the self-cleavage is reported as 1.15. Variant A129C U130C has a self-cleavage of 1.02. For A79U G114A, the self-cleavage was 1.79. U20C C71U showed a self-cleavage of 0.77. A67U U91A showed a self-cleavage of 0.08. For U14A U100C, the self-cleavage was 0.78. Work on A31U A117U yielded a self-cleavage of 0.95. For G55A A92G, the self-cleavage was 0.03. Work on G4C A79G yielded a self-cleavage of 0.29. With C18U G144A the self-cleavage was 0.75. Variant A77G A124G has a self-cleavage of 1.9. C19U A121U showed a self-cleavage of 1.03. Work on U47C A78G yielded a self-cleavage of 1.64. With A2U G97A the self-cleavage was 0.08. In the case of C76U A77U, the self-cleavage is reported as 2.05. With G80A G89A the self-cleavage was 0.07. For G34U A138U, the self-cleavage was 1.19. Variant A6U U91C has a self-cleavage of 0.52. In the case of U46C G97A, the self-cleavage is reported as 0.23. For A69G U100C, the self-cleavage was 0.98. U15C U119A showed a self-cleavage of 1.5. A6G U23C showed a self-cleavage of 0.93. Variant A2G A142G has a self-cleavage of 0.93. Work on C99U A124U yielded a self-cleavage of 0.42. U39A A59G showed a self-cleavage of 0.08. For U23A U29A, the self-cleavage was 1.24. In the case of U87A A117G, the self-cleavage is reported as 0.09. With G93A A142G the self-cleavage was 0.04. In the case of G35A G125U, the self-cleavage is reported as 1.03. A67G C110U showed a self-cleavage of 0.46. With A78G G127A the self-cleavage was 1.16. A64U A121G showed a self-cleavage of 0.49. For A79C A121G, the self-cleavage was 1.67. C51U A124U showed a self-cleavage of 2.12. With G35U C113U the self-cleavage was 1.09. Work on U1A U20A yielded a self-cleavage of 0.81. In the case of G60A A69G, the self-cleavage is reported as 0.05. Work on U85A C120A yielded a self-cleavage of 0.07. Work on U52A A77G yielded a self-cleavage of 2.06. A79G U102A showed a self-cleavage of 1.12. Variant C3U U115C has a self-cleavage of 1.03. In the case of U26C A50G, the self-cleavage is reported as 1.14. U52C U119C showed a self-cleavage of 1.86. For U20A A50U, the self-cleavage was 1.06. In the case of U100A G126A, the self-cleavage is reported as 1.03. Variant U52C G74U has a self-cleavage of 1.79. A59U A67U showed a self-cleavage of 0.1. With G58A U96C the self-cleavage was 0.04. Variant A129G C131U has a self-cleavage of 0.92. Variant U39A U100C has a self-cleavage of 1.67. Work on U45A A78U yielded a self-cleavage of 1.99. A50G U143A showed a self-cleavage of 1.7. A30U U109C gave a self-cleavage of 1.33. Work on C18U A43G yielded a self-cleavage of 2.02. Work on C19A A142G yielded a self-cleavage of 1.3. In the case of U85C U96A, the self-cleavage is reported as 0.07. U100C U134A showed a self-cleavage of 1.83. G10A G11A showed a self-cleavage of 1.61. Variant A2G A65U has a self-cleavage of 0.66. In the case of A24G C111A, the self-cleavage is reported as 1.74. Work on U9C A69U yielded a self-cleavage of 0.06. With C19U A43U the self-cleavage was 1.41. Variant U85A A141G has a self-cleavage of 0.07. For U85C G139A, the self-cleavage was 0.2. With A24C U73A the self-cleavage was 0.46. With G25A A42G the self-cleavage was 1.38. With U1C G25A the self-cleavage was 0.72. In the case of U45C U96C, the self-cleavage is reported as 0.12. For G11A U29C, the self-cleavage was 1.25. U46C A138U showed a self-cleavage of 1.65. Work on U5A U62A yielded a self-cleavage of 0. U5C A121U gave a self-cleavage of 0.86. In the case of C3U U109A, the self-cleavage is reported as 0.93. In the case of A77C U100C, the self-cleavage is reported as 1.53. In the case of U73A A142G, the self-cleavage is reported as 1.57. With U39C U85G the self-cleavage was 0.04. In the case of G7U A69G, the self-cleavage is reported as 0.94. Variant C61G A67U has a self-cleavage of 0.04. A6G A65G gave a self-cleavage of 0.09. C90U A142G showed a self-cleavage of 0.03. In the case of A107G U108G, the self-cleavage is reported as 1.53. Variant C37U A140U has a self-cleavage of 1.14. U73C G86U gave a self-cleavage of 0.03. A30G G35A showed a self-cleavage of 1.11. Work on U45A U132C yielded a self-cleavage of 1.93. Variant U46C U143G has a self-cleavage of 1.41. A64G A69U showed a self-cleavage of 0.08. Variant U9C U96G has a self-cleavage of 0. With C18A A42G the self-cleavage was 1.45. Variant G49U G127A has a self-cleavage of 0.27. A57G C128G showed a self-cleavage of 0.55. For A64U A136U, the self-cleavage was 0.45. Work on G36A U39A yielded a self-cleavage of 1.3. With G122A A136G the self-cleavage was 1.54. A50G A92G showed a self-cleavage of 0.19. In the case of C16U C38U, the self-cleavage is reported as 1.06. U23C A57G showed a self-cleavage of 1.2. Work on A59U G75A yielded a self-cleavage of 0.51. With A77U U132G the self-cleavage was 1.74. Work on A79G G125C yielded a self-cleavage of 1.28. C120U A136G showed a self-cleavage of 1.39. For U73C C128A, the self-cleavage was 0.94. For G72U U81C, the self-cleavage was 1.28. U23G A140G showed a self-cleavage of 1.27. With G82A U102C the self-cleavage was 1.57. For U62A G82A, the self-cleavage was 0.03. A124G U143C showed a self-cleavage of 0.62. With U73C C99U the self-cleavage was 1.06. In the case of G33U G75A, the self-cleavage is reported as 0.78. U9A G60A gave a self-cleavage of 0.1. In the case of A31U G125U, the self-cleavage is reported as 1.37. Work on A42U A117U yielded a self-cleavage of 1.28. Variant A59G U81A has a self-cleavage of 0.1. G25U A43C showed a self-cleavage of 1.32. A2G G75A gave a self-cleavage of 0.7.
